According to patent publication US20240270821A1, “GIP/GLP1/GCG TRI-RECEPTOR AGONISTS AND USES THEREOF” (priority 2023, published 2024):
Residue numbers refer to the chain shown, from its start.

B1: Example 982 (peptide)
chain: YXQGTFTSDXSXXLDKKAQXAFIEYLIAGGPSSGEPPPSGTEEE
modifications: synthetic construct; SITE 2: note = 2-Aminoisobutyric Acid; SITE 10: note = 3-(4-Pyridyl)-L-alanine; SITE 12: note = L-ornithine; SITE 13: note = alpha-methyl-leucine; SITE 17: note = Lysine is chemically modified through conjugation of the epsilon-amino group of the Lysine side chain with (gamma-Gl)
B2: Example 986 (peptide)
chain: B1 chain with X12Q, K16X
modifications: synthetic construct; SITE 2: note = 2-Aminoisobutyric Acid; SITE 10: note = 3-(4-Pyridyl)-L-alanine; SITE 13: note = alpha-methyl-leucine; SITE 16: note = L-ornithine; SITE 17: note = Lysine is chemically modified through conjugation of the epsilon-amino group of the Lysine side chain with (gamma-Gl)
B3: Example 977 (peptide)
chain: YXQGTFTSDXSQXLDXKAQXAFIEYLIAGGPSSGEPPPSGSE
modifications: synthetic construct; SITE 2: note = 2-Aminoisobutyric Acid; SITE 10: note = 3-(4-Pyridyl)-L-alanine; SITE 13: note = alpha-methyl-leucine; SITE 16: note = L-ornithine; SITE 17: note = Lysine is chemically modified through conjugation of the epsilon-amino group of the Lysine side chain with (gamma-Gl)
B4: Example 980 (peptide)
chain: B3 chain with Q12X, X16K, S41T
modifications: synthetic construct; SITE 2: note = 2-Aminoisobutyric Acid; SITE 10: note = 3-(4-Pyridyl)-L-alanine; SITE 12: note = L-ornithine; SITE 13: note = alpha-methyl-leucine; SITE 17: note = Lysine is chemically modified through conjugation of the epsilon-amino group of the Lysine side chain with (gamma-Gl)
B5: Example 988 (peptide)
chain: B3 chain with Q12X, X16K, Y25X, A28E, G29X
modifications: non-natural residues; Lys acylated AEEA-(γGlu)2-C18 diacid; C-terminal amide; synthetic construct; SITE 2: note = 2-Aminoisobutyric Acid; SITE 10: note = 3-(4-Pyridyl)-L-alanine; SITE 12: note = L-ornithine; SITE 13: note = alpha-methyl-leucine; SITE 17: note = Lysine is chemically modified through conjugation of the epsilon-amino group of the Lysine side chain with (2-[2-(2-
B6: Example 990 (peptide)
chain: B3 chain with Q12X, X16K, Y25X, A28E, G29X
modifications: Aib, 4Pal, Me4Pal, Orn, alpha-methyl-Leu, lipidated Lys, amide; synthetic construct; SITE 2: note = 2-Aminoisobutyric Acid; SITE 10: note = 3-(4-Pyridyl)-L-alanine; SITE 12: note = L-ornithine; SITE 13: note = alpha-methyl-leucine; SITE 17: note = Lysine is chemically modified through conjugation of the epsilon-amino group of the Lysine side chain with (gamma-Gl)
B7: Example 984 (peptide)
chain: B3 chain with Q12X, S41T
modifications: Aib, 4Pal, Orn, αMeL, Me4Pal; (γGlu)2-C18 diacid on Lys; amide; synthetic construct; SITE 2: note = 2-Aminoisobutyric Acid; SITE 10: note = 3-(4-Pyridyl)-L-alanine; SITE 12: note = L-ornithine; SITE 13: note = alpha-methyl-leucine; SITE 16: note = L-ornithine; SITE 17: note = Lysine is chemically modified through conjugation of the epsilon-amino group of the Lys
B8: Example 973 (peptide)
chain: YXQGTFTSDXSXXLDXKAQXEFIEXLIEGGPSSGAPPPSGSEE
modifications: Aib, 4Pal, Orn, Me4Pal, αMeY; acylated lysine; amide; synthetic construct; SITE 2: note = 2-Aminoisobutyric Acid; SITE 10: note = 3-(4-Pyridyl)-L-alanine; SITE 12: note = L-ornithine; SITE 13: note = alpha-methyl-leucine; SITE 16: note = L-ornithine; SITE 17: note = Lysine is chemically modified through conjugation of the epsilon-amino group of the Lys
B9: Example 976 (peptide)
chain: B8 chain with I27L
modifications: non-natural residues; lipidated Lys; C-terminal amide; synthetic construct; SITE 2: note = 2-Aminoisobutyric Acid; SITE 10: note = 3-(4-Pyridyl)-L-alanine; SITE 12: note = L-ornithine; SITE 13: note = alpha-methyl-leucine; SITE 16: note = L-ornithine; SITE 17: note = Lysine is chemically modified through conjugation of the epsilon-amino group of the Lys
B10: Example 975 (peptide)
chain: B8 chain with E21Q, I27L
modifications: non-natural residues; acylated Lys; C-terminal amide; synthetic construct; SITE 2: note = 2-Aminoisobutyric Acid; SITE 10: note = 3-(4-Pyridyl)-L-alanine; SITE 12: note = L-ornithine; SITE 13: note = alpha-methyl-leucine; SITE 16: note = L-ornithine; SITE 17: note = Lysine is chemically modified through conjugation of the epsilon-amino group of the Lys
B11: Example 985 (peptide)
chain: B8 chain with E21A, X25Y, E28A, A35E, S41T
modifications: non-natural residues, acylated Lys, C-terminal amide; synthetic construct; SITE 2: note = 2-Aminoisobutyric Acid; SITE 10: note = 3-(4-Pyridyl)-L-alanine; SITE 12: note = L-ornithine; SITE 13: note = alpha-methyl-leucine; SITE 16: note = L-ornithine; SITE 17: note = Lysine is chemically modified through conjugation of the epsilon-amino group of the Lys
B12: Example 974 (peptide)
chain: B8 chain with E21X
modifications: Aib, 4Pal, Orn, Me4Pal, alpha-methyl-Tyr, lipidated Lys, amide; synthetic construct; SITE 2: note = 2-Aminoisobutyric Acid; SITE 10: note = 3-(4-Pyridyl)-L-alanine; SITE 12: note = L-ornithine; SITE 13: note = alpha-methyl-leucine; SITE 16: note = L-ornithine; SITE 17: note = Lysine is chemically modified through conjugation of the epsilon-amino group of the Lys
B13: Example 979 (peptide)
chain: YXQGTFTSDXSXXLDKKAQXAFIEYLIAGGPSSGEPPPSGE
modifications: synthetic construct; SITE 2: note = 2-Aminoisobutyric Acid; SITE 10: note = 3-(4-Pyridyl)-L-alanine; SITE 12: note = L-ornithine; SITE 13: note = alpha-methyl-leucine; SITE 17: note = Lysine is chemically modified through conjugation of the epsilon-amino group of the Lysine side chain with (gamma-Gl)
B14: Example 989 (peptide)
chain: B13 chain with Y25X, A28E, G29X, E41S
modifications: Lys acylated (γ-Glu)2-C18 diacid; non-natural residues; C-terminal amide; synthetic construct; SITE 2: note = 2-Aminoisobutyric Acid; SITE 10: note = 3-(4-Pyridyl)-L-alanine; SITE 12: note = L-ornithine; SITE 13: note = alpha-methyl-leucine; SITE 17: note = Lysine is chemically modified through conjugation of the epsilon-amino group of the Lysine side chain with (gamma-Gl)
B15: Example 983 (peptide)
chain: B13 chain with K16X
modifications: Lys acylated (γ-Glu)2-C18 diacid; non-natural residues; C-terminal amide; synthetic construct; SITE 2: note = 2-Aminoisobutyric Acid; SITE 10: note = 3-(4-Pyridyl)-L-alanine; SITE 12: note = L-ornithine; SITE 13: note = alpha-methyl-leucine; SITE 16: note = L-ornithine; SITE 17: note = Lysine is chemically modified through conjugation of the epsilon-amino group of the Lys
B16: Example 987 (peptide)
chain: B13 chain with Y25X, A28E, G29X, E41S
modifications: Aib, 4Pal, Orn, αMeL, Me4Pal, acylated K, C-terminal amide; synthetic construct; SITE 2: note = 2-Aminoisobutyric Acid; SITE 10: note = 3-(4-Pyridyl)-L-alanine; SITE 12: note = L-ornithine; SITE 13: note = alpha-methyl-leucine; SITE 17: note = Lysine is chemically modified through conjugation of the epsilon-amino group of the Lysine side chain with (2-[2-(2-
B17: Example 978 (peptide)
chain: YXQGTFTSDXSQXLDXKAQXAFIEYLIAGGPSSGEPPPSGSGE
modifications: synthetic construct; SITE 2: note = 2-Aminoisobutyric Acid; SITE 10: note = 3-(4-Pyridyl)-L-alanine; SITE 13: note = alpha-methyl-leucine; SITE 16: note = L-ornithine; SITE 17: note = Lysine is chemically modified through conjugation of the epsilon-amino group of the Lysine side chain with (gamma-Gl)
B18: Example 981 (peptide)
chain: B17 chain with Q12X, X16K, S41T, G42E
modifications: synthetic construct; SITE 2: note = 2-Aminoisobutyric Acid; SITE 10: note = 3-(4-Pyridyl)-L-alanine; SITE 12: note = L-ornithine; SITE 13: note = alpha-methyl-leucine; SITE 17: note = Lysine is chemically modified through conjugation of the epsilon-amino group of the Lysine side chain with (gamma-Gl)

Legend:
Assay in all cases: cell-based or functional assay
hGLP-1R = hGLP-1R (Homo sapiens, UniProt P43220)
Chain of hGLP-1R (P43220 24-463): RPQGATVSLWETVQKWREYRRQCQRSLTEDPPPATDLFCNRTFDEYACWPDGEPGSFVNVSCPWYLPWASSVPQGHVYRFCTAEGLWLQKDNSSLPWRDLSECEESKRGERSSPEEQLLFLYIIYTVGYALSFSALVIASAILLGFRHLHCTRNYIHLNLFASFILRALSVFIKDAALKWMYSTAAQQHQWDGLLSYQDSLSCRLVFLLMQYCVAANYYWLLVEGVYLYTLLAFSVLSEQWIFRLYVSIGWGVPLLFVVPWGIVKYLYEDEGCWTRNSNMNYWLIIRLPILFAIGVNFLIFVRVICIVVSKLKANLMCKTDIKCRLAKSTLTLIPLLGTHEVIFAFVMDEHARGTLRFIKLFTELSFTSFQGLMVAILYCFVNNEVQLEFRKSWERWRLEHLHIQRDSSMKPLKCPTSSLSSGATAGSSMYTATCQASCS

[1] = biological target: T1, human GIP receptor (human) (UniProt P48546)
T1 sequence (looked up): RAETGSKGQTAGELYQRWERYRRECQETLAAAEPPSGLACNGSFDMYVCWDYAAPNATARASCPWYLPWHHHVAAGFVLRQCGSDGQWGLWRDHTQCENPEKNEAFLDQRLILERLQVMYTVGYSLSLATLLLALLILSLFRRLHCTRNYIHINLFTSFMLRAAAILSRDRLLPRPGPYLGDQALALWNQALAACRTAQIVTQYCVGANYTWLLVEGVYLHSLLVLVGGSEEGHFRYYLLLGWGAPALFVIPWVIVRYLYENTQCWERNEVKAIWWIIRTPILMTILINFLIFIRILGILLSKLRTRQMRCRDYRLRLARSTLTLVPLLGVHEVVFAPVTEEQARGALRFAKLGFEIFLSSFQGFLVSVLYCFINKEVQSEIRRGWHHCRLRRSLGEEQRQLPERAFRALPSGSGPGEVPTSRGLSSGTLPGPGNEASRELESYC

[2] = biological target: human glucagon receptor (human) (UniProt P47871)
Chain of human glucagon receptor (human) (P47871 26-477): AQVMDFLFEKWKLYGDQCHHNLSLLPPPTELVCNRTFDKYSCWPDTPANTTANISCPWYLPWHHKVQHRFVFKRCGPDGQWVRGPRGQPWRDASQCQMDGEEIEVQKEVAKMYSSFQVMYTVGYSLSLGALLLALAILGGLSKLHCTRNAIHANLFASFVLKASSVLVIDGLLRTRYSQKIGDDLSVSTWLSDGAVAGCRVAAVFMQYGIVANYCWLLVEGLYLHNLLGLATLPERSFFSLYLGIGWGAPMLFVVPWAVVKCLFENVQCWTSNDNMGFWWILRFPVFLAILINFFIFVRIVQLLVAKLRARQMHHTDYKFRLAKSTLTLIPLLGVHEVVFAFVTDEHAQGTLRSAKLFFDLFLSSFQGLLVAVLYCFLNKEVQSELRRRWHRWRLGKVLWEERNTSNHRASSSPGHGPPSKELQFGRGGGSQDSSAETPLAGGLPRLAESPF

Row | Binder | Relative cAMP EC50 (hGLP-1R) [nM] | cAMP Rel EC50, nM (1% HSA) (hGLP-1R) [nM] | Relative cAMP EC50 [1] [nM] | cAMP Rel EC50, nM (1% HSA) [1] [nM] | Relative cAMP EC50 [2] [nM] | cAMP Rel EC50, nM (1% HSA) [2] [nM]
1 | B1 | 4.94 | 310 | 0.328 | 19.4 | 3.91 | 307
2 | B2 | 3.06 | 380 | 0.299 | 31.3 | 4.94 | 702
3 | B3 | 1.1 | 159 | 0.189 | 23 | 7.18 | 839
4 | B4 | 2.26 | 290 | 0.18 | 15.4 | 2.41 | 239
5 | B5 | 9.5 | 743 | 0.198 | 11.8 | 2.52 | 320
6 | B6 | 5.78 | 557 | 0.115 | 9.87 | 2.47 | 276
7 | B7 | 2.07 | 160 | 0.232 | 23.5 | 4.5 | 409
8 | B8 | – | 1140 | – | 60.1 | – | 2270
9 | B9 | – | 2860 | – | 82.7 | – | 848
10 | B10 | – | 1810 | – | 30.1 | – | 374
11 | B11 | 2.93 | 217 | 0.34 | 24 | 5.41 | 374
12 | B12 | – | 283 | – | 80.9 | – | 870
13 | B13 | 2.72 | 257 | 0.181 | 19.2 | 3.34 | 359
14 | B14 | 3.92 | 402 | 0.103 | 8 | 2.27 | 247
15 | B15 | 2.35 | 207 | 0.289 | 19.4 | 4.75 | 576
16 | B16 | 6.33 | 515 | 0.194 | 11.7 | 3.62 | 267
17 | B17 | 1.6 | 174 | 0.284 | 33.9 | 8.91 | 824
18 | B18 | 4.45 | 330 | 0.243 | 21.1 | 3.7 | 477
